Sequences and labels used below:
B1: Tyrosine-protein phosphatase non-receptor type 2 (Homo sapiens), P17706-2 (parent)
chain: MPTTIEREFEELDTQRRWQPLYLEIRNESHDYPHRVAKFPENRNRNRYRDVSPYDHSRVKLQNAENDYINASLVDIEEAQRSYILTQGPLPNTCCHFWLMVWQQKTKAVVMLNRIVEKESVKCAQYWPTDDQEMLFKETGFSVKLLSEDVKSYYTVHLLQLENINSGETRTISHFHYTTWPDFGVPESPASFLNFLFKVRESGSLNPDHGPAVIHCSAGIGRSGTFSLVDTCLVLMEKGDDINIKQVLLNMRKYRMGLIQTPDQLRFSYMAIIEGAKCIKGDSSIQKRWKELSKEDLSPAFDHSPNKIMTEKYNGNRIGLEEEKLTGDRCTGLSSKMQDTMEENSESALRKRIREDRKATTAQKVQQMKQRLNENERKRKRPRLTDT
B2: Tyrosine-protein phosphatase non-receptor type 2 (Homo sapiens), P17706-1 (parent)
chain: MPTTIEREFEELDTQRRWQPLYLEIRNESHDYPHRVAKFPENRNRNRYRDVSPYDHSRVKLQNAENDYINASLVDIEEAQRSYILTQGPLPNTCCHFWLMVWQQKTKAVVMLNRIVEKESVKCAQYWPTDDQEMLFKETGFSVKLLSEDVKSYYTVHLLQLENINSGETRTISHFHYTTWPDFGVPESPASFLNFLFKVRESGSLNPDHGPAVIHCSAGIGRSGTFSLVDTCLVLMEKGDDINIKQVLLNMRKYRMGLIQTPDQLRFSYMAIIEGAKCIKGDSSIQKRWKELSKEDLSPAFDHSPNKIMTEKYNGNRIGLEEEKLTGDRCTGLSSKMQDTMEENSESALRKRIREDRKATTAQKVQQMKQRLNENERKRKRWLYWQPILTKMGFMSVILVGAFVGWTLFFQQNAL

We go through two variants from IntAct's records for PubMed 15192089.

Variants of B1 are the subject of the first assay. Particulars: with insr_human INSR.
Turning to MPTTIEREFEELDTQRRWQPLYLEIRNESHDYPHRVAKFPENRNRNRYRDVSPYDHSRVKLQNAENDYINASLVDIEEAQRSYILTQGPLPNTCCHFWLMVWQQKTKAVVMLNRIVEKESVKCAQYWPTDDQEMLFKETGFSVKLLSEDVKSYYTVHLLQLENINSGETRTISHFHYTTWPAFGVPESPASFLNFLFKVRESGSLNPDHGPAVIHCSAGIGRSGTFSLVDTCLVLMEKGDDINIKQVLLNMRKYRMGLIQTPDQLRFSYMAIIEGAKCIKGDSSIQKRWKELSKEDLSPAFDHSPNKIMTEKYNGNRIGLEEEKLTGDRCTGLSSKMQDTMEENSESALRKRIREDRKATTAQKVQQMKQRLNENERKRKRPRLTDT [D182A], the “effect of a mutation on the interaction” value was “causing an interaction”.

In a further assay the parent is B2. Particulars: with insr_human INSR.
As for MPTTIEREFEELDTQRRWQPLYLEIRNESHDYPHRVAKFPENRNRNRYRDVSPYDHSRVKLQNAENDYINASLVDIEEAQRSYILTQGPLPNTCCHFWLMVWQQKTKAVVMLNRIVEKESVKCAQYWPTDDQEMLFKETGFSVKLLSEDVKSYYTVHLLQLENINSGETRTISHFHYTTWPAFGVPESPASFLNFLFKVRESGSLNPDHGPAVIHCSAGIGRSGTFSLVDTCLVLMEKGDDINIKQVLLNMRKYRMGLIQTPDQLRFSYMAIIEGAKCIKGDSSIQKRWKELSKEDLSPAFDHSPNKIMTEKYNGNRIGLEEEKLTGDRCTGLSSKMQDTMEENSESALRKRIREDRKATTAQKVQQMKQRLNENERKRKRWLYWQPILTKMGFMSVILVGAFVGWTLFFQQNAL [D182A], the “effect of a mutation on the interaction” value is “causing an interaction”.
